The data set concerns the molecule itself. In words: cryo-EM structure; auto-assembled filaments of recombinant IFI16 PYD, 73 uM, in 40 mM HEPES pH 7.4, 160 mM NaCl, 1 mM EDTA, 1 mM DTT; helical reconstruction.

This is an account of results in doi:10.1101/2025.01.02.631089, “The atypical filament assembly underpins the inflammasome-independent functions of IFI16” (bioRxiv, 2025).

B1: IFI16^PYD (pyrin domain of human Interferon Inducible Protein 16, residues 1-94) (domain or fragment, UniProt Q16666 1-94, looked up)
chain: MGKKYKNIVLLKGLEVINDYHFRMVKSLLSNDLKLNLKMREEYDKIQIADLMEEKFRGDAGLGKLIKIFEDIPTLEDLAETLKKEKLKVKGPAL
notes: Interferon inducible protein 16 (IFI16), human, pyrin domain, residues 1-94; Assembles into a helical filament (three-start helix, 134.6 degrees rotation, 5.6 Å rise, no rotational symmetry); The number of copies in a filament is not defined; Cloned in pET21b; also called IFI16^PYD filament; source: E. coli BL21(DE3), purified (Ni-NTA, Superdex 75 SEC)
As for B1, the binding result is reported as “binds”.
